# Assay results published in US20230340128A1.
# Residue numbers refer to the chain shown, from its start.
# B1: XENP32938 (bispecific antibody, part only; not given: anti-CD3 scFv-Fc arm, constant regions, V domains shown, not shown: another chain or arm of the molecule; a dimerising Fc or GST; small tags and cut ends)
# VH: QVQLVQSGAEVKKPGASVKVSCKASGYTFTSYWMHWVRQAPGQGLEWMGMIHPNSDNTIYYYKFQGRVTMTVDKSISTAYMELSRLRSDDTAVYYCAIIITPVVPKFDYWGQGTLVTVSS
# VL: DIVMTQSPDSLAVSLGERATINCKASHDVGTSVAWYQQKPGQSPKLLIYWASTRHTGVPDRFTGSGSGTDFTLTISSLQAEDVAVYFCQQYYSYPLTFGAGTKLEIK
# B2: XENP32939 (bispecific antibody, part only; not given: anti-CD3 scFv-Fc arm, constant regions, V domains shown, not shown: another chain or arm of the molecule; a dimerising Fc or GST; small tags and cut ends)
# VH: B1 VH with M50W, Y62E
# VL: B1 VL with T31Q, Y92S
# B3: XENP32943 (bispecific antibody, part only; not given: anti-CD3 scFv-Fc arm, constant regions, V domains shown, not shown: another chain or arm of the molecule; a dimerising Fc or GST; small tags and cut ends)
# VH: B1 VH with M50W, Y62E
# VL: B1 VL with Y92S, Y94I
# B4: XENP32940 (bispecific antibody, part only; not given: anti-CD3 scFv-Fc arm, constant regions, V domains shown, not shown: another chain or arm of the molecule; a dimerising Fc or GST; small tags and cut ends)
# VH: B1 VH with M50W, Y62E
# VL: B1 VL with Y92S, Y94F
# B5: XENP31701 (bispecific antibody, part only; not given: anti-CD3 scFv-Fc arm, constant regions, V domains shown, not shown: another chain or arm of the molecule; a dimerising Fc or GST; small tags and cut ends)
# VH: B1 VH with Y62E
# VL: B1 VL with Y92S
# B6: XENP32553 (bispecific antibody, part only; not given: anti-CD3 scFv-Fc arm, constant regions, V domains shown, not shown: another chain or arm of the molecule; a dimerising Fc or GST; small tags and cut ends)
# VH: B1 VH with H52N, Y62E
# VL: B1 VL with Y92S
# B7: XENP32565 (bispecific antibody, part only; not given: anti-CD3 scFv-Fc arm, constant regions, V domains shown, not shown: another chain or arm of the molecule; a dimerising Fc or GST; small tags and cut ends)
# VH: B1 VH with Y62E
# VL: B1 VL with H55E, Y92S
# B8: XENP32556 (bispecific antibody, part only; not given: anti-CD3 scFv-Fc arm, constant regions, V domains shown, not shown: another chain or arm of the molecule; a dimerising Fc or GST; small tags and cut ends)
# VH: B1 VH with Y62E, I98R
# VL: B1 VL with Y92S
# B9: XENP32550 (bispecific antibody, part only; not given: anti-CD3 scFv-Fc arm, constant regions, V domains shown, not shown: another chain or arm of the molecule; a dimerising Fc or GST; small tags and cut ends)
# VH: B1 VH with S31G, Y62E
# VL: B1 VL with Y92S
# B10: XENP32559 (bispecific antibody, part only; not given: anti-CD3 scFv-Fc arm, constant regions, V domains shown, not shown: another chain or arm of the molecule; a dimerising Fc or GST; small tags and cut ends)
# VH: B1 VH with Y62E
# VL: B1 VL with A25S, Y92S
# B11: XENP32566 (bispecific antibody, part only; not given: anti-CD3 scFv-Fc arm, constant regions, V domains shown, not shown: another chain or arm of the molecule; a dimerising Fc or GST; small tags and cut ends)
# VH: B1 VH with Y62E
# VL: B1 VL with T56S, Y92S
# B12: XENP32560 (bispecific antibody, part only; not given: anti-CD3 scFv-Fc arm, constant regions, V domains shown, not shown: another chain or arm of the molecule; a dimerising Fc or GST; small tags and cut ends)
# VH: B1 VH with Y62E
# VL: B1 VL with H27Q, Y92S
# B13: XENP32557 (bispecific antibody, part only; not given: anti-CD3 scFv-Fc arm, constant regions, V domains shown, not shown: another chain or arm of the molecule; a dimerising Fc or GST; small tags and cut ends)
# VH: B1 VH with Y62E, T101S
# VL: B1 VL with Y92S
# B14: XENP32551 (bispecific antibody, part only; not given: anti-CD3 scFv-Fc arm, constant regions, V domains shown, not shown: another chain or arm of the molecule; a dimerising Fc or GST; small tags and cut ends)
# VH: B1 VH with W33Y, Y62E
# VL: B1 VL with Y92S
# B15: XENP32555 (bispecific antibody, part only; not given: anti-CD3 scFv-Fc arm, constant regions, V domains shown, not shown: another chain or arm of the molecule; a dimerising Fc or GST; small tags and cut ends)
# VH: B1 VH with D56G, Y62E
# VL: B1 VL with Y92S
# B16: XENP32570 (bispecific antibody, part only; not given: anti-CD3 scFv-Fc arm, constant regions, V domains shown, not shown: another chain or arm of the molecule; a dimerising Fc or GST; small tags and cut ends)
# VH: B1 VH with D56G, Y62E
# VL: B1 VL with D28S, Y92S
# B17: XENP32564 (bispecific antibody, part only; not given: anti-CD3 scFv-Fc arm, constant regions, V domains shown, not shown: another chain or arm of the molecule; a dimerising Fc or GST; small tags and cut ends)
# VH: B1 VH with Y62E
# VL: B1 VL with V33L, Y92S
# B18: XENP32568 (bispecific antibody, part only; not given: anti-CD3 scFv-Fc arm, constant regions, V domains shown, not shown: another chain or arm of the molecule; a dimerising Fc or GST; small tags and cut ends)
# VH: B1 VH with Y62E
# VL: B1 VL with Y92S, Y94T
# B19: XENP32558 (bispecific antibody, part only; not given: anti-CD3 scFv-Fc arm, constant regions, V domains shown, not shown: another chain or arm of the molecule; a dimerising Fc or GST; small tags and cut ends)
# VH: B1 VH with Y62E, K106R
# VL: B1 VL with Y92S
# B20: XENP32554 (bispecific antibody, part only; not given: anti-CD3 scFv-Fc arm, constant regions, V domains shown, not shown: another chain or arm of the molecule; a dimerising Fc or GST)
# VH: B1 VH with N54Q, Y62E
# VL: B1 VL with Y92S
# B21: XENP32569 (bispecific antibody, part only; not given: anti-CD3 scFv-Fc arm, constant regions, V domains shown, not shown: another chain or arm of the molecule; a dimerising Fc or GST; small tags and cut ends)
# VH: B1 VH with N54Q, Y62E
# VL: B1 VL with D28S, Y92S
# Molecular target: human mesothelin (MSLN) (human) (UniProt Q13421)
# Assay: BLI (Octet), multiple concentrations, bsAb in 1+1 Fab-scFv-Fc format
Kd [nM],Response,koff [s⁻¹],kon [M⁻¹ s⁻¹],Binder
16.2,0.169,0.0103,635000,B1
90.4,0.202,0.0383,424000,B2
–,0.0022,–,–,B3
246,0.136,0.0816,332000,B4

# Molecular target: human mesothelin (MSLN) (human) (UniProt Q13421)
# Assay: BLI (Octet), bsAb in 1+1 Fab-scFv-Fc format
Kd [nM],Response,koff [s⁻¹],kon [M⁻¹ s⁻¹],Binder
0.0805,0.86,4.69e-05,583000,B5
0.687,1.16,0.00037,539000,B6
0.286,1.11,0.000169,590000,B7
0.469,1.18,0.000199,425000,B8
0.601,1.02,0.000314,522000,B9
0.283,1.11,0.000161,569000,B10
0.18,1.05,0.000113,627000,B11
0.633,1.03,0.000383,605000,B12
0.721,1.15,0.000374,519000,B13
1.6,1.19,0.000773,483000,B14
0.684,1.23,0.000375,549000,B15
0.103,0.981,7.35e-05,717000,B16
0.0861,0.952,5.68e-05,660000,B17
–,0.107,–,–,B18
0.795,1.17,0.000198,249000,B19
0.483,1.13,0.000268,555000,B20
0.135,0.978,9.35e-05,693000,B21

# Molecular target: cyno MSLN (Macaca fascicularis)
# Assay: BLI (Octet), bsAb in 1+1 Fab-scFv-Fc format
Kd [nM],Response,koff [s⁻¹],kon [M⁻¹ s⁻¹],Binder
0.0938,0.737,5.74e-05,612000,B5
0.585,1.06,0.000337,575000,B6
0.255,1,0.000151,592000,B7
0.395,1.07,0.000157,399000,B8
0.254,0.891,0.000146,576000,B9
0.223,1.04,0.000128,575000,B10
0.163,0.941,0.0001,616000,B11
1.2,0.948,0.000762,634000,B12
0.62,1.09,0.000321,518000,B13
1.66,1.1,0.000822,495000,B14
0.603,1.11,0.000342,566000,B15
0.155,0.95,0.000105,676000,B16
0.0297,0.849,2.01e-05,676000,B17
–,0.0728,–,–,B18
0.7,1.11,0.000166,238000,B19
0.414,1.03,0.00023,555000,B20
0.189,0.867,0.000125,660000,B21
